Reference: PMC3836723, “Translation Initiation Factors eIF3 and HCR1 Control Translation Termination and Stop Codon Read-Through in Yeast Cells” (PLoS Genetics, 2013)

Key:
[1] = biological target: T1, Myc-tagged RLI1 (yeast, UniProt Q03195 1-608); test: co-IP; WCE of yeast YDH353 (chromosomal Myc-tagged RLI1), 500 µg total protein, 1 µl mouse anti-Myc-Tag IgG, with or without antibody; lysis in buffer A (30 mM HEPES pH 8.8, 20 mM KAc, 3 mM magnesium acetate, 1 mM DTT, 1% Nonidet P-40); Western analysis; conditions: partners not purified
T1 construct: chromosomal Myc-tagged allele; also called ABCE1/RLI1; source: chromosomal Myc-tagged allele, yeast strain YDH353, in whole cell extract

[2] = biological target: T2, TAP-tagged HCR1 (yeast, UniProt Q05775 1-265); test: pull-down; TAP-tagged chromosomal alleles; cells treated with 1% HCHO before harvest; WCE (1 mg protein) in buffer B (50 mM Tris-HCl pH 7.6, 150 mM NaCl, 0.05% Tween 20) with or without 0.1 mg/ml RNase A; IgG Sepharose 6 Fast Flow beads, 2 h at 4°C; eluted by boiling in SDS buffer or by TEV protease; untagged wt strain as control; Western analysis; conditions: partners not purified
T2 construct: eIF3j/HCR1, yeast; chromosomal TAP-tagged allele; also called eIF3j/HCR1; source: chromosomal TAP-tagged allele, yeast strain H553, cells treated with 1% HCHO, in whole cell extract
T2 sequence (Q05775 whole entry): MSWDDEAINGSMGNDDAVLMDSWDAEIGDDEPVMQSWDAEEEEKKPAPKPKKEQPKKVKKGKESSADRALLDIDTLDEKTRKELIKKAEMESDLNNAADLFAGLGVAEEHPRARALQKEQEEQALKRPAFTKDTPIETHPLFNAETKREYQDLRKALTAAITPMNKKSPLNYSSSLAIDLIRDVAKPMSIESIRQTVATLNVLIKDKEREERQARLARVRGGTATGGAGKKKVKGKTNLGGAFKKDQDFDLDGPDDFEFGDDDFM

B1: eukaryotic release factor 1 (eRF1) (natural protein, yeast (endogenous in yeast cells), UniProt P12385 1-437, looked up)
chain: MDNEVEKNIEIWKVKKLVQSLEKARGNGTSMISLVIPPKGQIPLYQKMLTDEYGTASNIKSRVNRLSVLSAITSTQQKLKLYNTLPKNGLVLYCGDIITEDGKEKKVTFDIEPYKPINTSLYLCDNKFHTEVLSELLQADDKFGFIVMDGQGTLFGSVSGNTRTVLHKFTVDLPKKHGRGGQSALRFARLREEKRHNYVRKVAEVAVQNFITNDKVNVKGLILAGSADFKTDLAKSELFDPRLACKVISIVDVSYGGENGFNQAIELSAEALANVKYVQEKKLLEAYFDEISQDTGKFCYGIDDTLKALDLGAVEKLIVFENLETIRYTFKDAEDNEVIKFAEPEAKDKSFAIDKATGQEMDVVSEEPLIEWLAANYKNFGATLEFITDKSSEGAQFVTGFGGIGAMLRYKVNFEQLVDESEDEYYDEDEGSDYDFI
notes: eRF1 (SUP45), yeast; also called SUP45; source: endogenous, yeast whole cell extract
- percent of input co-precipitated [1]: ~22 % of the input
- percent of input co-purified [2]: ~2%

B2: eukaryotic release factor 3 (eRF3) (natural protein, yeast (endogenous in yeast cells), UniProt P05453 1-685, looked up)
chain: MSDSNQGNNQQNYQQYSQNGNQQQGNNRYQGYQAYNAQAQPAGGYYQNYQGYSGYQQGGYQQYNPDAGYQQQYNPQGGYQQYNPQGGYQQQFNPQGGRGNYKNFNYNNNLQGYQAGFQPQSQGMSLNDFQKQQKQAAPKPKKTLKLVSSSGIKLANATKKVGTKPAESDKKEEEKSAETKEPTKEPTKVEEPVKKEEKPVQTEEKTEEKSELPKVEDLKISESTHNTNNANVTSADALIKEQEEEVDDEVVNDMFGGKDHVSLIFMGHVDAGKSTMGGNLLYLTGSVDKRTIEKYEREAKDAGRQGWYLSWVMDTNKEERNDGKTIEVGKAYFETEKRRYTILDAPGHKMYVSEMIGGASQADVGVLVISARKGEYETGFERGGQTREHALLAKTQGVNKMVVVVNKMDDPTVNWSKERYDQCVSNVSNFLRAIGYNIKTDVVFMPVSGYSGANLKDHVDPKECPWYTGPTLLEYLDTMNHVDRHINAPFMLPIAAKMKDLGTIVEGKIESGHIKKGQSTLLMPNKTAVEIQNIYNETENEVDMAMCGEQVKLRIKGVEEEDISPGFVLTSPKNPIKSVTKFVAQIAIVELKSIIAAGFSCVMHVHTAIEEVHIVKLLHKLEKGTNRKSKKPPAFAKKGMKVIAVLETEAPVCVETYQDYPQLGRFTLRDQGTTIAIGKIVKIAE
notes: eRF3 (SUP35), yeast; also called SUP35; source: endogenous, yeast whole cell extract
- percent of input co-precipitated [1]: ~13 % of the input
- percent of input co-purified [2]: 9 ± 0.2%

B3: ABCE1/RLI1 (natural protein, yeast (endogenous in yeast cells), UniProt Q03195 1-608, looked up)
chain: MSDKNSRIAIVSADKCKPKKCRQECKRSCPVVKTGKLCIEVTPTSKIAFISEILCIGCGICVKKCPFDAIQIINLPTNLEAHVTHRYSANSFKLHRLPTPRPGQVLGLVGTNGIGKSTALKILAGKQKPNLGRFDDPPEWQEIIKYFRGSELQNYFTKMLEDDIKAIIKPQYVDNIPRAIKGPVQKVGELLKLRMEKSPEDVKRYIKILQLENVLKRDIEKLSGGELQRFAIGMSCVQEADVYMFDEPSSYLDVKQRLNAAQIIRSLLAPTKYVICVEHDLSVLDYLSDFVCIIYGVPSVYGVVTLPASVREGINIFLDGHIPAENLRFRTEALQFRIADATEDLQNDSASRAFSYPSLKKTQGDFVLNVEEGEFSDSEILVMMGENGTGKTTLIKLLAGALKPDEGQDIPKLNVSMKPQKIAPKFPGTVRQLFFKKIRGQFLNPQFQTDVVKPLRIDDIIDQEVQHLSGGELQRVAIVLALGIPADIYLIDEPSAYLDSEQRIICSKVIRRFILHNKKTAFIVEHDFIMATYLADKVIVFEGIPSKNAHARAPESLLTGCNRFLKNLNVTFRRDPNSFRPRINKLDSQMDKEQKSSGNYFFLDNTGI
notes: source: endogenous, yeast whole cell extract
- percent of input co-purified [2]: ~58%
